B1: E3 ubiquitin-protein ligase LNX (Homo sapiens), Q8TBB1 (parent)
chain: MNQPESANDPEPLCAVCGQAHSLEENHFYSYPEEVDDDLICHICLQALLDPLDTPCGHTYCTLCLTNFLVEKDFCPMDRKPLVLQHCKKSSILVNKLLNKLLVTCPFREHCTQVLQRCDLEHHFQTSCKGASHYGLTKDRKRRSQDGCPDGCASLTATAPSPEVSAAATISLMTDEPGLDNPAYVSSAEDGQPAISPVDSGRSNRTRARPFERSTIRSRSFKKINRALSVLRRTKSGSAVANHADQGRENSENTTAPEVFPRLYHLIPDGEITSIKINRVDPSESLSIRLVGGSETPLVHIIIQHIYRDGVIARDGRLLPGDIILKVNGMDISNVPHNYAVRLLRQPCQVLWLTVMREQKFRSRNNGQAPDAYRPRDDSFHVILNKSSPEEQLGIKLVRKVDEPGVFIFNVLDGGVAYRHGQLEENDRVLAINGHDLRYGSPESAAHLIQASERRVHLVVSRQVRQRSPDIFQEAGWNSNGSWSPGPGERSNTPKPLHPTITCHEKVVNIQKDPGESLGMTVAGGASHREWDLPIYVISVEPGGVISRDGRIKTGDILLNVDGVELTEVSRSEAVALLKRTSSSIVLKALEVKEYEPQEDCSSPAALDSNHNMAPPSDWSPSWVMWLELPRCLYNCKDIVLRRNTAGSLGFCIVGGYEEYNGNKPFFIKSIVEGTPAYNDGRIRCGDILLAVNGRSTSGMIHACLARLLKELKGRITLTIVSWPGTFL
partner: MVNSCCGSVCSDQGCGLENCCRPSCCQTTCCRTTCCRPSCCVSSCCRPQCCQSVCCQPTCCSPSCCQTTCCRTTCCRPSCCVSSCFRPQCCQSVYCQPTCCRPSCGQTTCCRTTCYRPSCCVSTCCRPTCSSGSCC
B2: Small glutamine-rich tetratricopeptide repeat-containing protein beta (Homo sapiens), Q96EQ0 (parent)
chain: MSSIKHLVYAVIRFLREQSQMDTYTSDEQESLEVAIQCLETVFKISPEDTHLAVSQPLTEMFTSSFCKNDVLPLSNSVPEDVGKADQLKDEGNNHMKEENYAAAVDCYTQAIELDPNNAVYYCNRAAAQSKLGHYTDAIKDCEKAIAIDSKYSKAYGRMGLALTALNKFEEAVTSYQKALDLDPENDSYKSNLKIAEQKLREVSSPTGTGLSFDMASLINNPAFISMAASLMQNPQVQQLMSGMMTNAIGGPAAGVGGLTDLSSLIQAGQQFAQQIQQQNPELIEQLRNHIRSRSFSSSAEEHS
B3: E3 ubiquitin-protein ligase LNX (Homo sapiens), Q8TBB1 (parent)
chain: B1 chain
partner: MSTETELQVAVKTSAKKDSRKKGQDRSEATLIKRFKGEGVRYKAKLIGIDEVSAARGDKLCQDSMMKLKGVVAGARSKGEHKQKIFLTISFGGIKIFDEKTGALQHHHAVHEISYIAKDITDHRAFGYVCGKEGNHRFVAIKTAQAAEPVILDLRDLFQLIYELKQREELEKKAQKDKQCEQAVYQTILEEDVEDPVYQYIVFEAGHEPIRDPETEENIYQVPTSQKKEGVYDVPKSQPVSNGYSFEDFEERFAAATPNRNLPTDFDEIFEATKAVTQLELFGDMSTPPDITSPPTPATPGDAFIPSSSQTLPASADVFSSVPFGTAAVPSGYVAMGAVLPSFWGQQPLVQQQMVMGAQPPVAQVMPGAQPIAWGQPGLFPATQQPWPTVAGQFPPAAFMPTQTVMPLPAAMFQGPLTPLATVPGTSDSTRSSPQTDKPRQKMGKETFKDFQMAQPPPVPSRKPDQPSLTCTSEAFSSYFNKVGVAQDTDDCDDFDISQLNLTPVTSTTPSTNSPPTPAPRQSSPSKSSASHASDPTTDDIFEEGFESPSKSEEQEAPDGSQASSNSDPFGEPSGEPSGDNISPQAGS
B4: E3 ubiquitin-protein ligase LNX (Homo sapiens), Q8TBB1 (parent)
chain: B1 chain
partner: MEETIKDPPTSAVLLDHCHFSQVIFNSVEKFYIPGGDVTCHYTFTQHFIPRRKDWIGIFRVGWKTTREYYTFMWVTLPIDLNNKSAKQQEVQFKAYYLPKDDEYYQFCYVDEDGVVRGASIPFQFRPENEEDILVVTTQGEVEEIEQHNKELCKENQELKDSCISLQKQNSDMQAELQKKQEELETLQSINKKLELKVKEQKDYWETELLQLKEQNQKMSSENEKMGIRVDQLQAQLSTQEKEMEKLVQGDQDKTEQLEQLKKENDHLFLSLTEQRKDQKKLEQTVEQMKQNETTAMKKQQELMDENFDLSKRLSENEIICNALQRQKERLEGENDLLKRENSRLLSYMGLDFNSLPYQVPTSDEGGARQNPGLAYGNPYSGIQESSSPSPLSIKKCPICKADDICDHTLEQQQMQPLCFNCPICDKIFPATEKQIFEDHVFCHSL
B5: E3 ubiquitin-protein ligase LNX (Homo sapiens), Q8TBB1 (parent)
chain: B1 chain
partner: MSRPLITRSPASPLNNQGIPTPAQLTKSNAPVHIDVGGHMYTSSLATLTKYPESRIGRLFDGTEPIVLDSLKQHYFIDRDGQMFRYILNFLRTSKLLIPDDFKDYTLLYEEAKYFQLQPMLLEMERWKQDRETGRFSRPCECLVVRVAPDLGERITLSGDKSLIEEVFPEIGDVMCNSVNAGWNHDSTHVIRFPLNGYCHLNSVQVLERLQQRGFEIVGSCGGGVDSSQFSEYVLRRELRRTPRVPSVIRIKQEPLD
B6: E3 ubiquitin-protein ligase LNX (Homo sapiens), Q8TBB1 (parent)
chain: B1 chain
partner: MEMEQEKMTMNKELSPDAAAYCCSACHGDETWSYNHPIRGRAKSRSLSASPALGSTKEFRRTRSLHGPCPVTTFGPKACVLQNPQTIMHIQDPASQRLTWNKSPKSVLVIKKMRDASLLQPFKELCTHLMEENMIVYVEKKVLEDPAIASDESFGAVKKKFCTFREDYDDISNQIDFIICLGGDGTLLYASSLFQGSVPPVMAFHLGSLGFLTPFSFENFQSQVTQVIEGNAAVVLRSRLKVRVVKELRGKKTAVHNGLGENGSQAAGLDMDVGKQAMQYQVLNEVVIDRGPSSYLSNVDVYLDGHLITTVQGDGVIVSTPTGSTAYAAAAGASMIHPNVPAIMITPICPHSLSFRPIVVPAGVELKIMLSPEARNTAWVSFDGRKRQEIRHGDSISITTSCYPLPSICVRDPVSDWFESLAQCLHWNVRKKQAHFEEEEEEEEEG
B7: E3 ubiquitin-protein ligase LNX (Homo sapiens), Q8TBB1 (parent)
chain: B1 chain
partner: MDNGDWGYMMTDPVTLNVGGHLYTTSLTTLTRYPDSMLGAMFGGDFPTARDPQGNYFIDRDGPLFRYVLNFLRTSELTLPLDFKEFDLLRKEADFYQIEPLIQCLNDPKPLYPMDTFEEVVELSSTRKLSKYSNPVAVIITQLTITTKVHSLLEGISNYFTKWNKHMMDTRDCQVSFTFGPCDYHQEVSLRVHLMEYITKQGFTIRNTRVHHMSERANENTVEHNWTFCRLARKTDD
B8: E3 ubiquitin-protein ligase LNX (Homo sapiens), Q8TBB1 (parent)
chain: B1 chain
partner: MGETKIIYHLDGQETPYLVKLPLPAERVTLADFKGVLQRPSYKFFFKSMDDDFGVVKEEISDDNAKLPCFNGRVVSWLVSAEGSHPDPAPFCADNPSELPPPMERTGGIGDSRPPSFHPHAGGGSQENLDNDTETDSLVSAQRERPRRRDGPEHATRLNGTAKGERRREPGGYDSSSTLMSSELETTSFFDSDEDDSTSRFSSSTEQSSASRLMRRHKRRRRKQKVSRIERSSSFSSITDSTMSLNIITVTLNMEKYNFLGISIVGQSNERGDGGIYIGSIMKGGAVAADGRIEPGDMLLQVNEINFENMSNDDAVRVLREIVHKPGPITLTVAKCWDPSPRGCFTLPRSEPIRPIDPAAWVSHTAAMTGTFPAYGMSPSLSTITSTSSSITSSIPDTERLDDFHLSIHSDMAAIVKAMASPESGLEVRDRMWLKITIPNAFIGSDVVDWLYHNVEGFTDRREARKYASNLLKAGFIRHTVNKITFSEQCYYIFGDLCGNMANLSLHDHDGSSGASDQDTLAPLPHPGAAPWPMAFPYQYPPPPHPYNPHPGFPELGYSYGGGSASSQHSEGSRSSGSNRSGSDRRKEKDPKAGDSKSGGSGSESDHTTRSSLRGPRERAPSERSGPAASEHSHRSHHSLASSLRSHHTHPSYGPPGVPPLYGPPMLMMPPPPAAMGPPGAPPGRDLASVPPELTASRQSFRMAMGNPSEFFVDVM
B9: E3 ubiquitin-protein ligase LNX (Homo sapiens), Q8TBB1 (parent)
chain: B1 chain
partner: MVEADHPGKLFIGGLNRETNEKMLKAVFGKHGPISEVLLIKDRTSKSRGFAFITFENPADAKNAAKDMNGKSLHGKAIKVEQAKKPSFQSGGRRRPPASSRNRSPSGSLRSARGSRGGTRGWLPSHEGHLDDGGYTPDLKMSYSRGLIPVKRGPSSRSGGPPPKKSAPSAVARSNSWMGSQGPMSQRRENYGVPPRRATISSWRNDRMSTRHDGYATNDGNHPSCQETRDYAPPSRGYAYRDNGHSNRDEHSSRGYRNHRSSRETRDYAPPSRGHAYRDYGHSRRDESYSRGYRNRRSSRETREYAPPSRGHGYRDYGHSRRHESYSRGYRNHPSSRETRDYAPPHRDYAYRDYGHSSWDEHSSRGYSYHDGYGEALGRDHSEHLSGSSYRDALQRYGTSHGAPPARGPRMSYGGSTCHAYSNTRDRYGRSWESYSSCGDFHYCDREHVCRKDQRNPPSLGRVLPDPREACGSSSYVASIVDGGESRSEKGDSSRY
B10: E3 ubiquitin-protein ligase LNX (Homo sapiens), Q8TBB1 (parent)
chain: B1 chain
partner: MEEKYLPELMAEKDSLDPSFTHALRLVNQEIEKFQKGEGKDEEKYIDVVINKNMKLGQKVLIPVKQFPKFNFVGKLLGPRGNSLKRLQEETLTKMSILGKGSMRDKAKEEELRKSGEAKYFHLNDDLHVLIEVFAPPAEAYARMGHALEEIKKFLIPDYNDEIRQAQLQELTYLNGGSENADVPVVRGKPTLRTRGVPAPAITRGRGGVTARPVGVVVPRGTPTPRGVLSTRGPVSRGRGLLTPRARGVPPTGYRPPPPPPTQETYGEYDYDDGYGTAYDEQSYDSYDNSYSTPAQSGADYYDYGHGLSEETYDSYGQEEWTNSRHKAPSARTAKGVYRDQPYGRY

Variants of: B1
Settings: with kra42_human KRTAP4-2, Q9BYR5

Variant | effect of a mutation on the interaction
E295K | disrupting interaction strength

Variants of: B2
Settings: with fbln4_human EFEMP2, O95967
Chain of fbln4_human EFEMP2, O95967 (O95967 whole entry): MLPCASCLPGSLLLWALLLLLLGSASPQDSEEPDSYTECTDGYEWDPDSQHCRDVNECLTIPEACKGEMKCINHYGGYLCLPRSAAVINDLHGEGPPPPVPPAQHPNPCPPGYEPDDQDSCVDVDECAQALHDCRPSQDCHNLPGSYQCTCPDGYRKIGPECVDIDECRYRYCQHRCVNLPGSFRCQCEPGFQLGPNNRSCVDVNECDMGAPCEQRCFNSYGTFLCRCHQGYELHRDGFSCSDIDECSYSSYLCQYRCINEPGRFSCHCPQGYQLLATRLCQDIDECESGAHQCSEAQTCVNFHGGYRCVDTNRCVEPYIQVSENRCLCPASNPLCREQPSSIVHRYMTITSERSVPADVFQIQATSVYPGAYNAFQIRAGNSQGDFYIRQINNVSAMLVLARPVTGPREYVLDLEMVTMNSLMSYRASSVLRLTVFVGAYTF

Variant | effect of a mutation on the interaction
MSSIKHLVYAVIRFLREQSQMDTYTSDEQESLEVAIQCLETVFKISPEDTHLAVSQPLTEMFTSSFCKNDVLPLSNSVPEDVGKADQLKDEGNNHMKEENYAAAVDCYTQAIELDPNNAVYYCNRAAAQSKLGHYTDAIKDCEKAIAIDSKYSKAYGRMGLALTALNKFEEAVTSYQKALDLDPENDSYKSNLKIAEQKLREVSSPTGTGLSFDMASLINNPAFISMAASLMQNPQVQQLMSGMMTNAIGGPAAGVGGLTDLSSLIQAGQQFAQQIQQQNPELIEQLRNHIWSRSFSSSAEEHS [R292W] | with no effect

Variants of: B2
Settings: with il6rb_human IL6ST

Variant | effect of a mutation on the interaction
MSSIKHLVYAVIRFLREQSQMDTYTSDEQESLEVAIQCLETVFKISPEDTHLAVSQPLTEMFTSSFCKNDVLPLSNSVPEDVGKADQLKDEGNNHMKEENYAAAVDCYTQAIELDPNNAVYYCNRAAAQSKLGHYTDAIKDCEKAIAIDSKYSKAYGRMGLALTALNKFEEAVTSYQKALDLDPENDSYKSNLKIAEQKLREVSSPTGTGLSFDMASLINNPAFISMAASLMQNPQVQQLMSGMMTNAIGGPAAGVGGLTDLSSLIQAGQQFAQQIQQQNPELIEQLRNHIWSRSFSSSAEEHS [R292W] | disrupting interaction strength

Variants of: B3
Settings: with dab1_human DAB1, O75553

Variant | effect of a mutation on the interaction
E295K | disrupting interaction strength

Variants of: B4
Settings: with caco2_human CALCOCO2, Q13137

Variant | effect of a mutation on the interaction
E295K | disrupting interaction strength

Variants of: B5
Settings: with kctd1_human KCTD1, Q719H9

Variant | effect of a mutation on the interaction
E295K | disrupting interaction strength

Variants of: B6
Settings: with nadk_human NADK

Variant | effect of a mutation on the interaction
E295K | disrupting interaction strength

Variants of: B7
Settings: with kctd6_human KCTD6, Q8NC69

Variant | effect of a mutation on the interaction
E295K | disrupting interaction strength

Variants of: B8
Settings: with dvl3_human DVL3, Q92997

Variant | effect of a mutation on the interaction
E295K | disrupting interaction strength

Variants of: B9
Settings: with rby1a_human RBMY1A1, P0DJD3

Variant | effect of a mutation on the interaction
E295K | disrupting interaction strength

Variants of: B10
Settings: with khdr3_human KHDRBS3, O75525

Variant | effect of a mutation on the interaction
E295K | disrupting interaction strength
